Assay results: article PMC2656773 (Neuron, 2009)

Target: the molecule itself
Test: non-reducing SDS-PAGE

B1: His-tagged Snapin wild-type (natural protein, UniProt Q9Z266 1-136, looked up)
chain: MAAAGSAAVSGAGTPVAGPTGRDLFAEGLLEFLRPAVQQLDSHVHAVRESQVELREQIDNLATELCRINEDQKVALDLDPYVKKLLNARRRVVLVNNILQNAQERLRRLNHSVAKETARRRAMLDSGVYPPGSPSK
**Q.** How did the “stoichiometry N” value turn out when B1 was run?
**A.** 2
